According to patent US20240182561A1 (Regeneron, published 2024):

Key:
[1] = molecular target: T1, human CACNG1 expressed on cells (human, UniProt Q06432 1-222); assay: cell-based or functional assay
[2] = molecular target: T1, human CACNG1 expressed on cells; assay: cell-based or functional assay; remark: listed apart in the source
[3] = molecular target: T1, human CACNG1 expressed on cells; assay: cell-based or functional assay; remark: listed apart in the source
[4] = molecular target: T2, mouse CACNG1 expressed on cells (mouse, UniProt O70578 1-223); assay: biosensor conjugate imaging (AF647), 6.7 nM, C2C12 mouse myotubes
T2 construct: whole, on cells; Transfected in HEK293/mCACNG1; endogenous in C2C12 myotubes and wildtype mouse myofibers; Each row names the cell type under assay; also called mCACNG1; HEK293/mCACNG1
T2 sequence (looked up): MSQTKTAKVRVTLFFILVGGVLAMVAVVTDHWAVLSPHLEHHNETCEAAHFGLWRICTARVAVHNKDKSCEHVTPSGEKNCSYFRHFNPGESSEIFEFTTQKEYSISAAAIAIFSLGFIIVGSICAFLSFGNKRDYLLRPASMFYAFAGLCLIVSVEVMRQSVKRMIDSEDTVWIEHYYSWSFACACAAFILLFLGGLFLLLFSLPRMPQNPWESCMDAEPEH
Method: The growth media was changed to MyoTonic Differentiation Media (Cook Myosite Cat #MD-5555) and replaced every 2 days. C2C12 mouse myoblasts were maintained in DMEM with 10% FBS and 1% penicillin-streptomycin supplement and grown in a 37° C. incubator with 5% CO₂. […] After 24 hours, growth media was replaced with differentiation media (DMEM with 2% horse serum) and placed in a 37° C. incubator with 7.5% CO₂.

T1 sequence (Q06432 whole entry): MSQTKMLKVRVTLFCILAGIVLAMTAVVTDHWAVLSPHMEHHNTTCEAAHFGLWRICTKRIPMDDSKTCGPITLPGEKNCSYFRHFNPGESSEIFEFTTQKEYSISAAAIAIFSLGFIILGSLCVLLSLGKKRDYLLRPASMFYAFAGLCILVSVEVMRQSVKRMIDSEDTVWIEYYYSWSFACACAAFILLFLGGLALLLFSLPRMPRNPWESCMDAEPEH

EC50 of androgen receptor luciferase reporter activation (RLU) by the DHT conjugate REGN14570-M3004 in hCACNG1.AR.Luc LNCaP cells, 24 hours; concentration adjusted for DAR [1]: 2 nM
EC50 of androgen receptor luciferase reporter activation (RLU) by the DHT conjugate REGN14570-M3004 in hCACNG1.AR.Luc LNCaP cells, 48 hours; concentration adjusted for DAR [2]: 5.83 nM
EC50 of androgen receptor luciferase reporter activation (RLU) by the DHT conjugate REGN14570-M3004 in hCACNG1.AR.Luc LNCaP cells, 72 hours; concentration adjusted for DAR [3]: 6.65 nM
binding result [4]: binds
B1: REGN14570 (antibody, human IgG1, kappa, N297Q)
heavy: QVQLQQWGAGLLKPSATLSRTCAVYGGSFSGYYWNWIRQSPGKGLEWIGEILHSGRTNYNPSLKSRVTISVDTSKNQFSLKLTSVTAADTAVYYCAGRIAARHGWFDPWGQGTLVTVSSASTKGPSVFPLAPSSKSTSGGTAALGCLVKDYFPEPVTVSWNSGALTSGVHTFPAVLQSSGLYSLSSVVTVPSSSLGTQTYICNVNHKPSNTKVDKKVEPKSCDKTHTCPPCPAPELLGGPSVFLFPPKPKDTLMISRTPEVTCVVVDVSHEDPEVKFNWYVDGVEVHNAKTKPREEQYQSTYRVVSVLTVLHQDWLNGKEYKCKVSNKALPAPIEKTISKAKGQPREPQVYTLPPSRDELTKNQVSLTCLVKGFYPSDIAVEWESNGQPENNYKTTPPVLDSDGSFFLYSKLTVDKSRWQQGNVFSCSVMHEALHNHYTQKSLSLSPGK
light: DIQMTQSPSSVSTSVGDRVTISCRASQDIRKWLAWYQQKPGKAPKLLIYATSSLQSGVPSRFSGSGSGTDFTLTISSLQPEDFATYFCQQANSFPFTFGQGTKLEIKRTVAAPSVFIFPPSDEQLKSGTASVVCLLNNFYPREAKVQWKVDNALQSGNSQESVTEQDSKDSTYSLSSTLTLSKADYEKHKVYACEVTHQGLSSPVTKSFNRGEC
modifications: conjugated to the M378-Biosensor probe (Example 15) or to budesonide linker-payload M404-M3123, DAR 4.1 (Example 14); attachment residues not stated for these lots
notes: hIgG1 N297Q; Tested only as conjugates; also called REGN14570-M378-Biosensor; REGN14570-M404-M3123
